Experimental data reported in US11008402 (dated 2021).
Values joined by “and” are separate entries in the source; they are usually repeats but may differ in a detail not shown here. Identical values can stand only once. Like-named read-outs stand apart in the source and are kept apart here. Each block holds one binder with its values, some of them ahead of it.

How the values were obtained:
CD3 (Jurkat cells) = CD3 (Jurkat cells) (human, UniProt P07766); experiment: FACS, Jurkat
EGFR ECD = EGFR ECD (human, UniProt P00533); experiment: ELISA
EGFR (cell surface) = EGFR (cell surface) (human, UniProt P00533); experiment: FACS, FaDu (EGFR and HER3 positive)
HER3-Fc ECD [1] = target: HER3-Fc ECD (human); experiment: ELISA
HER3 (cell surface) [2] = target: HER3 (cell surface) (human); experiment: FACS, A375
HER3-His ECD [3] = target: HER3-His ECD (human); experiment: ELISA
HER3-Fc ECD [4] = target: HER3-Fc ECD (human); experiment: ELISA; remark: listed apart in the source
HER3-His ECD [5] = target: HER3-His ECD (human); experiment: ELISA; remark: listed apart in the source
HER3 (cell surface) [6] = target: HER3 (cell surface) (human); experiment: FACS, MCF-7
HER3 (cell surface) [7] = target: HER3 (cell surface) (human); experiment: FACS, SKBR-3 (EGFR and HER3 positive)
HER3-His ECD [8] = target: HER3-His ECD (human); experiment: ELISA; remark: listed apart in the source
HER3 (cell surface) [9] = target: HER3 (cell surface) (human); experiment: FACS, MCF-7; remark: listed apart in the source
HER3 (cell surface) [10] = target: HER3 (cell surface) (human); experiment: FACS, MCF-7 (Example 22)

CD3 (Jurkat cells), sequence (P07766 23-207): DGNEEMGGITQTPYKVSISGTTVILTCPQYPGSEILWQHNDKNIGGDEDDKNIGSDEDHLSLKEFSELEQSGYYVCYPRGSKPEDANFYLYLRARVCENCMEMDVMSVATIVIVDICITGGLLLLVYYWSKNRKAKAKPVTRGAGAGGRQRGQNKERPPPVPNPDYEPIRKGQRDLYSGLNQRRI

- EC50 (CD3 (Jurkat cells)): 2400 pM and 3100 pM
B1: scDb 3-43xCD3, CD3 arm (antibody)
chain: METDTLLLWVLLLWVPGSTGQVQLQQSGPGLVKPSQTLSLTCAISGDSVSSNRAAWNWIRQSPSRGLEWLGRTYYRSKWYNDYAQSLKSRITINPDTPKNQFSLQLNSVTPEDTAVYYCARDGQLGLDALDIWGQGTMVTVSSGGGGSDIQMTQSPSSLSASVGDRVTITCRASQDIRNYLNWYQQKPGKAPKLLIYYTSRLHSGVPSRFSGSGSGTDFTFTISSLQPEDIATYYCQQGNTLPWTFGQGTKLEIKRGGGGSGGGGSGGGGSQVQLVQSGAEVKKPGSSVKVSCKASGGTFSGYTMNWVRQAPGQGLEWMGLINPYKGVSTYNGKFKDRVTITADKSTSTAYMELSSLRSEDTAVYYCARSGYYGDSDWYFDVWGQGTLVTVSSGGGGSQAGLTQPPAVSVAPGQTASITCGRDNIGSRSVHWYQQKPGQAPVLVVYDDSDRPAGIPERFSGSNYENTATLTISRVEAGDEADYYCQVWGITSDHVVFGGGTKLTVLAAAHHHHHH

- EC50 (EGFR ECD): 190 pM
- EC50 (EGFR (cell surface)): 140 pM
B2: Db3-43xhu225-Ig, EGFR arm (antibody)
chain 1: EVQLVESGGGLVQPGGSLRLSCAASGFSLTNYGVHWVRQAPGKGLEWLGVIWSGGNTDYNTPFTSRFTISRDNSKNTLYLQMNSLRAEDTAVYYCARALTYYDYEFAYWGQGTTVTVSSGGGGSQAGLTQPPAVSVAPGQTASITCGRDNIGSRSVHWYQQKPGQAPVLVVYDDSDRPAGIPERFSGSNYENTATLTISRVEAGDEADYYCQVWGITSDHVVFGGGTKLTVLASTKGPSVFPLAPSSKSTSGGTAALGCLVKDYFPEPVTVSWNSGALTSGVHTFPAVLQSSGLYSLSSVVTVPSSSLGTQTYICNVNHKPSNTKVDKKVEPKSCDKTHTCPPCPAPPVAGPSVFLFPPKPKDTLMISRTPEVTCVVVDVSHEDPEVKFNWYVDGVEVHNAKTKPREEQYNSTYRVVSVLTVLHQDWLNGKEYKCKVSNKGLPSSIEKTISKAKGQPREPQVYTLPPSRDELTKNQVSLTCLVKGFYPSDIAVEWESNGQPENNYKTTPPVLDSDGSFFLYSKLTVDKSRWQQGNVFSCSVMHEALHNHYTQKSLSLSPGK
chain 2: QVQLQQSGPGLVKPSQTLSLTCAISGDSVSSNRAAWNWIRQSPSRGLEWLGRTYYRSKWYNDYAQSLKSRITINPDTPKNQFSLQLNSVTPEDTAVYYCARDGQLGLDALDIWGQGTMVTVSSGGGGSDIQLTQSPSFLSASVGDRVTITCRASQSIGTNIHWYQQKPGKAPKLLIKYASESISGVPSRFSGSGSGTEFTLTISSLQPEDFATYYCQQNNNWPTTFGAGTKLEIKRTVAAPSVFIFPPSDEQLKSGTASVVCLLNNFYPREAKVQWKVDNALQSGNSQESVTEQDSKDSTYSLSSTLTLSKADYEKHKVYACEVTHQGLSSPVTKSFNRGEC

- EC50 (HER3-Fc ECD [1]): 330 pM
- EC50 (HER3 (cell surface) [2]): 1190 pM
B3: scFv3-43-Fc-scTRAIL, HER3 arm (antibody)
chain: QVQLQQSGPGLVKPSQTLSLTCAISGDSVSSNRAAWNWIRQSPSRGLEWLGRTYYRSKWYNDYAQSLKSRITINPDTPKNQFSLQLNSVTPEDTAVYYCARDGQLGLDALDIWGQGTMVTVSSGGGGSGGGGSGGGGSQAGLTQPPAVSVAPGQTASITCGRDNIGSRSVHWYQQKPGQAPVLVVYDDSDRPAGIPERFSGSNYENTATLTISRVEAGDEADYYCQVWGITSDHVVFGGGTKLTVLG

- EC50 (HER3-His ECD [3]): 1900 pM
B4: scDb 4D5x3-43-Fc, HER3 arm (antibody, V domains shown)
VH: QVQLQQSGPGLVKPSQTLSLTCAISGDSVSSNRAAWNWIRQSPSRGLEWLGRTYYRSKWYNDYAQSLKSRITINPDTPKNQFSLQLNSVTPEDTAVYYCARDGQLGLDALDIWGQGTMVTVSS
VL: QAGLTQPPAVSVAPGQTASITCGRDNIGSRSVHWYQQKPGQAPVLVVYDDSDRPAGIPERFSGSNYENTATLTISRVEAGDEADYYCQVWGITSDHVVFGGGTKLTVLG

- EC50 (HER3-His ECD [3]): 200 pM
B5: scDbhu225x3-43-Fc (GGGGS), HER3 arm (antibody, V domains shown)
VH: QVQLQQSGPGLVKPSQTLSLTCAISGDSVSSNRAAWNWIRQSPSRGLEWLGRTYYRSKWYNDYAQSLKSRITINPDTPKNQFSLQLNSVTPEDTAVYYCARDGQLGLDALDIWGQGTMVTVSS
VL: QAGLTQPPAVSVAPGQTASITCGRDNIGSRSVHWYQQKPGQAPVLVVYDDSDRPAGIPERFSGSNYENTATLTISRVEAGDEADYYCQVWGITSDHVVFGGGTKLTVLG

- EC50 (HER3-Fc ECD [4]): 930 pM
B6: scDb4D5x3-43-LL, HER3 arm (antibody, V domains shown)
VH: QVQLQQSGPGLVKPSQTLSLTCAISGDSVSSNRAAWNWIRQSPSRGLEWLGRTYYRSKWYNDYAQSLKSRITINPDTPKNQFSLQLNSVTPEDTAVYYCARDGQLGLDALDIWGQGTMVTVSS
VL: QAGLTQPPAVSVAPGQTASITCGRDNIGSRSVHWYQQKPGQAPVLVVYDDSDRPAGIPERFSGSNYENTATLTISRVEAGDEADYYCQVWGITSDHVVFGGGTKLTVLG

- EC50 (HER3-His ECD [5]): 260 pM
- EC50 (HER3 (cell surface) [6]): 54 pM
- EC50 (HER3 (cell surface) [7]): 47 pM
B7: Db3-43xhu225-Ig, HER3 arm (antibody, V domains shown)
VH: QVQLQQSGPGLVKPSQTLSLTCAISGDSVSSNRAAWNWIRQSPSRGLEWLGRTYYRSKWYNDYAQSLKSRITINPDTPKNQFSLQLNSVTPEDTAVYYCARDGQLGLDALDIWGQGTMVTVSS
VL: QAGLTQPPAVSVAPGQTASITCGRDNIGSRSVHWYQQKPGQAPVLVVYDDSDRPAGIPERFSGSNYENTATLTISRVEAGDEADYYCQVWGITSDHVVFGGGTKLTVLG

- EC50 (HER3-His ECD [3]): 240 pM
B8: scDb 2-35x3-43-Fc, HER3 arm (antibody, V domains shown)
VH: QVQLQQSGPGLVKPSQTLSLTCAISGDSVSSNRAAWNWIRQSPSRGLEWLGRTYYRSKWYNDYAQSLKSRITINPDTPKNQFSLQLNSVTPEDTAVYYCARDGQLGLDALDIWGQGTMVTVSS
VL: QAGLTQPPAVSVAPGQTASITCGRDNIGSRSVHWYQQKPGQAPVLVVYDDSDRPAGIPERFSGSNYENTATLTISRVEAGDEADYYCQVWGITSDHVVFGGGTKLTVLG

- EC50 (HER3-His ECD [8]): 240 pM
B9: scDb hu225x3-43-Fc, HER3 arm (antibody, V domains shown)
VH: QVQLQQSGPGLVKPSQTLSLTCAISGDSVSSNRAAWNWIRQSPSRGLEWLGRTYYRSKWYNDYAQSLKSRITINPDTPKNQFSLQLNSVTPEDTAVYYCARDGQLGLDALDIWGQGTMVTVSS
VL: QAGLTQPPAVSVAPGQTASITCGRDNIGSRSVHWYQQKPGQAPVLVVYDDSDRPAGIPERFSGSNYENTATLTISRVEAGDEADYYCQVWGITSDHVVFGGGTKLTVLG

- EC50 (HER3-Fc ECD [4]): 810 pM
- EC50 (HER3 (cell surface) [9]): 31.6 pM and 31.4 pM
B10: scDb 3-43xCD3-scFv 3-43, HER3 arms (antibody, V domains shown)
VH: QVQLQQSGPGLVKPSQTLSLTCAISGDSVSSNRAAWNWIRQSPSRGLEWLGRTYYRSKWYNDYAQSLKSRITINPDTPKNQFSLQLNSVTPEDTAVYYCARDGQLGLDALDIWGQGTMVTVSS
VL: QAGLTQPPAVSVAPGQTASITCGRDNIGSRSVHWYQQKPGQAPVLVVYDDSDRPAGIPERFSGSNYENTATLTISRVEAGDEADYYCQVWGITSDHVVFGGGTKLTVLG

- EC50 (HER3-Fc ECD [4]): 3300 pM and 4870 pM
- EC50 (HER3 (cell surface) [9]): 1100 pM
- EC50 (HER3 (cell surface) [10]): 1100 pM
B11: scDb 3-43xCD3, HER3 arm (antibody, V domains shown)
VH: QVQLQQSGPGLVKPSQTLSLTCAISGDSVSSNRAAWNWIRQSPSRGLEWLGRTYYRSKWYNDYAQSLKSRITINPDTPKNQFSLQLNSVTPEDTAVYYCARDGQLGLDALDIWGQGTMVTVSS
VL: QAGLTQPPAVSVAPGQTASITCGRDNIGSRSVHWYQQKPGQAPVLVVYDDSDRPAGIPERFSGSNYENTATLTISRVEAGDEADYYCQVWGITSDHVVFGGGTKLTVLG

- EC50 (HER3 (cell surface) [9]): 17.3 pM
B12: scFv3-43-scDb3-43xhuU3-scFv3-43, HER3 arms (antibody, V domains shown)
VH: QVQLQQSGPGLVKPSQTLSLTCAISGDSVSSNRAAWNWIRQSPSRGLEWLGRTYYRSKWYNDYAQSLKSRITINPDTPKNQFSLQLNSVTPEDTAVYYCARDGQLGLDALDIWGQGTMVTVSS
VL: QAGLTQPPAVSVAPGQTASITCGRDNIGSRSVHWYQQKPGQAPVLVVYDDSDRPAGIPERFSGSNYENTATLTISRVEAGDEADYYCQVWGITSDHVVFGGGTKLTVLG

- EC50 (CD3 (Jurkat cells)): 5200 pM
B13: scFv3-43-scDb3-43xhuU3-scFv3-43, CD3 arm (antibody)
chain: METDTLLLWVLLLWVPGSTGQVQLQQSGPGLVKPSQTLSLTCAISGDSVSSNRAAWNWIRQSPSRGLEWLGRTYYRSKWYNDYAQSLKSRITINPDTPKNQFSLQLNSVTPEDTAVYYCARDGQLGLDALDIWGQGTMVTVSSGGGGSDIQMTQSPSSLSASVGDRVTITCRASQDIRNYLNWYQQKPGKAPKLLIYYTSRLHSGVPSRFSGSGSGTDFTFTISSLQPEDIATYYCQQGNTLPWTFGQGTKLEIKRGGGGSGGGGSGGGGSQVQLVQSGAEVKKPGSSVKVSCKASGGTFSGYTMNWVRQAPGQGLEWMGLINPYKGVSTYNGKFKDRVTITADKSTSTAYMELSSLRSEDTAVYYCARSGYYGDSDWYFDVWGQGTLVTVSSGGGGSQAGLTQPPAVSVAPGQTASITCGRDNIGSRSVHWYQQKPGQAPVLVVYDDSDRPAGIPERFSGSNYENTATLTISRVEAGDEADYYCQVWGITSDHVVFGGGTKLTVLAAAGGSGGGGSGGGTQVQLQQSGPGLVKPSQTLSLTCAISGDSVSSNRAAWNWIRQSPSRGLEWLGRTYYRSKWYNDYAQSLKSRITINPDTPKNQFSLQLNSVTPEDTAVYYCARDGQLGLDALDIWGQGTMVTVSSGGGGSGGGGSGGGGSQAGLTQPPAVSVAPGQTASITCGRDNIGSRSVHWYQQKPGQAPVLVVYDDSDRPAGIPERFSGSNYENTATLTISRVEAGDEADYYCQVWGITSDHVVFGGGTKLTVLGSL
